Measurements reported in the nanobody polyreactivity screen of Harvey et al. (2022).

Experiment: yeast display, Sf9 membrane polyspecificity reagent, FACS + sequencing; frameworks hold sequencing errors
In short: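 A nanobody's polyreactivity label depends on the gate it was sorted from. Yeast display cells were stained with 10% biotinylated, detergent-solubilized Sf9 membrane reagent for 1 hour at 4 °C, enriched on streptavidin microbeads and sorted by FACS. The low and high (top ~1%) gates were set on anti-HA fluorescence for expression and streptavidin fluorescence for reagent binding.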

QGQLEESGGGLVQAGGSLRLSCAASGSIFTLYAMGWYRQAPGKERELVAAITRSGGSTYYADSVKGRFTISRDNAKNTVYLQMNSLKPEDTAVYYCAADKAPYSTEGDYWGQGTQVTVSS
polyreactivity (PSR sort gate): high polyreactivity

QVQLVESGGGLVQAGGSLRLSCPASGSTFEDNAMGWYRQAPGKERELVAAISRTGGRTYYADSVKGRFTISRDNAKNTVYLQMNSLKPEDTAVYYCNAVYPAQRMDYWGQGTQVTVSS
polyreactivity (PSR sort gate): high polyreactivity

QVQLVESGGGLVQAGGSLRLSCDASAYIFVYNVMGWYRQAHGKERELVAAITSGGSTNYADSVKGRFTISRDNAKNTVYLQMNSLKPEDTAVYYCNAQFDLTFRGTGDYWGQGTQVTVSS
polyreactivity (PSR sort gate): low polyreactivity

QVQIVESGGGLVQAGGSLRLSCAASGRTFLVNSMGWYRQAPGKEMELVAVITNGGSTYADSVKGRFTISRDNAKNTVYLQMNSLKPEDTAVYNCAARGNRWRSPSGSPYYYWGQGTQVTVSS
polyreactivity (PSR sort gate): high polyreactivity

QVQLVESGGGLVQAGGSLRLSCAASGRTFPYYTMGWYREAPGKERELVAAIDGSGDNTYYADSVKGRFTISRDNAKNTLYLHMNSLKPEHTAVYYCTADTGLGTRDFEKRDYWGQGTQVTVSS
polyreactivity (PSR sort gate): low polyreactivity

QVQLVESGGGLVQAGGSLRISCAASGSSFHDYAMGWYTQAPGKERELVAAISSSGTSTYYADSVKGRFTISRDNANNTVYLQMNILKPEDTAVYYCAVYAISFAWSGWTYEDYWGQGTQVNVSS
polyreactivity (PSR sort gate): low polyreactivity

QVQLVESGGGLVQAGGSLRLSCAASGNIFGLYAMGWYRQAPGTERELVAAISFSDTSTYYADSVKGRYTISRDNAKNTVYLQMNSLKPEDTAVYYCAAELWFNNGEHNYWGQGTQVTVSS
polyreactivity (PSR sort gate): high polyreactivity

QVQLVESGGGLVQAGGSLRLSCASSGFTYGTNAMVWYRQAPGKERELVAAISSRGGSTYYADSVKGRFTISRDNAKNTVYLLMNSLKPEDTAVYYCARRVARRQHEYGYWGQGTQVTVSS
polyreactivity (PSR sort gate): high polyreactivity

QVQLVESGGGLVQAGGSLRLSCAASGRIFGAYTMGWYRQAPGKERELVAAISWSGGRTYYADSVKGRFTISRDNAKNTVYLQMNSVKPEDTAVYYCAASYSGRQDRYPHYDYWGQGTQVTVSS
polyreactivity (PSR sort gate): low polyreactivity

QVQLVESGGGLVQAGGSLGLSCAASGSIFEPYVMGWYRPAPGKERELVAAISESGDTTYYADSVKGRFTISRDNAKNTVYLQRNSLKPEDTAVYYCNAEDPSIDGWWRVGEYDYWGQGTQVTVSS
polyreactivity (PSR sort gate): low polyreactivity

QVQLVESVGGLVQAGGSLRLSCAASGSIFDYNGMGRYRQAPGKERELVATITLSTARTYYADSVKGRFTISRDNAKNTVYLQMNSLKPEDTAVYYCATRYPKFRRRNYWGQGTQVTVSS
polyreactivity (PSR sort gate): high polyreactivity

QVQLVESGGGLVQAGGSLRLSCAASGSILGQYTMGWYRQAPGKERELVAGISSGGSTNYADSVKGRFTISRDNAKNTVYLQMNSLKPEDTAVYYCNKDGAFHWVGSDPVYLFEYWGQGTQVTVSS
polyreactivity (PSR sort gate): low polyreactivity

QVQLVESGGGLVQAGGSLRLSCADSGSIFYYNAMGWYRQAPGKERELVAAISVSGGSTYYADSVKGRFTISRDNAKNTVYLQMNSLKPEDTAVYYCAAEWLYYYWLPGRADYLEYDYWGQGTQVTVSS
polyreactivity (PSR sort gate): low polyreactivity

QVQLVESGGGLVQAGGSLRLSCAASGSIFNGYAMGWYRQAPGKERELVAAISKRGGSTYYADSVKGRFTISRDNAKNTVYLQMNSLKPEDTAVYYCAARRLFPYGYWGQGTQVTVSS
polyreactivity (PSR sort gate): high polyreactivity

QVQLVESGGGLVQAGGSLRLSCAASGITFYVYAMGWYRQAPGKERELVAAISRRGGSTSYADSVKGRFTISRDNAKNTVYLQMNSLKPEDTAVYYCAAGPFYGGIVRRYDYWGQGTQVTVSS
polyreactivity (PSR sort gate): low polyreactivity

QVQLVESGGGLVQAGGSLRLSCAASGRIFKYYAMGWYRQAPGKERELVATITSGGRTNYADSVKGRFTISRDNAKNTVYLQMNSLKPEDTAVYYCARRPPASSRYDYWGQGTQVTVSS
polyreactivity (PSR sort gate): high polyreactivity

QVQLVESGGGLVQAGGSLRLICAASGRSFNLYAMGWYRQAPGKERELVAAISYSGGRTYSADSVKGRFTISRDNAKNTVYLQMNSLKPEDTAVYYCNTVRGSVRQAGVGYEYWGQGTQVTVSS
polyreactivity (PSR sort gate): high polyreactivity

QVQLVESVGGLVQAGGSLRLSSAASGRTFKGNAMGCYSQAHGKERELVAVITGSGGSTYYADSVKGRFTISRDNAKNTVYLQMNSLKPEDTAVYYCNKKLQRRSWYVYWGLGTQVTVSS
polyreactivity (PSR sort gate): low polyreactivity

QVQLVESGGGLVHAGGSLRLSCAASGRIFYVYAMGWYRQAPGKEREFVASISWSGGSTYYADSVKGRFTISRDNAKNTVYLQMNSLKPEDTAVYYCAARVVRYGYKYYYWGQCTQVTVSS
polyreactivity (PSR sort gate): low polyreactivity

QVQLVESGGGLVQAGGSLRLSCAASGSTFRYYAMGWYRQAPGKERELVAVIRNSGGSTYYADSVKGRFTISRDNAKNTVYLQKNSLKREDTAVYYCAARLYTFHRDYWGQGTQVTVSS
polyreactivity (PSR sort gate): low polyreactivity

QVQLVESGGGLVQAGGSLRLSCAASGSTFTRYGMGWYRQAPGKERELVAAITTSGSSTYYADSVKGRFTISRDNAKNTVYLQMNSLKPEDTAVYYCAADWSSWGFDYWGQGTQVTVSS
polyreactivity (PSR sort gate): low polyreactivity

QVQLVESGGGLVQAGGSLRLSCAASGRTFSWNAMGWYRQAPGKERELVAAINRSGGITFYADSVKGRFTISRDNAKNTVYLHMNSLKPEDTAVYYSAADRSFGHHYWYSGKRYDYWGQGTQVTVSS
polyreactivity (PSR sort gate): low polyreactivity

QVQLVESGGGLFQAGGSLRLSCAASGRIFGPYAMGWYRQAPGKERELVATITLRGGSTYYADSVKGRFTISRDNAKNTVYLQMNSLKPEDTAVYYCNARYYSLVYRYDYWGQGTQVTVSS
polyreactivity (PSR sort gate): high polyreactivity

QVQLVESGGGLVQAGGSLRLSCAASGRTFPANTMGWYRPAPGKERELVAAISSRGGSTYYADSVKGRFTISRDNAKKTVYLQMNSLKPEDTAVYYCNAYLYFPRYDYWGQGTQVTVSS
polyreactivity (PSR sort gate): high polyreactivity

QVQLVESGGGLVQAGGSLRLSCAASGITFRCNAMGWYRQAPGKERELVASITGGTDTYYADSVKGRFTISRDNAKKTVYLQMNSLKPEASAVYYCAAPSNQYFRYKRRYYYWGQGTQVTVSS
polyreactivity (PSR sort gate): high polyreactivity

QVQHVESGGALVQAGGSHRLSCAASGLTIWRYAKGWYRLATGKERELVAAINYNGVRTYYADSVKGRFTISRDNAKNTVYLQMNSLKQEDTAVYYCAAKPGYYGYWGQGTQVTVSS
polyreactivity (PSR sort gate): high polyreactivity

QVQLVESAGGLVHAGGSLRLSCAASGFIFWYYAMGWDRQSPGKERELVASISRGGDSTYYADSVKGRFTISRDNAKNTVYVQMNSLKPVDTAVYYCNARGRYRKSERRAFDYWGQGTQVTVSS
polyreactivity (PSR sort gate): high polyreactivity

QVQLVESGGGLDQAGGSLRLSCAASGSIFKYYVIGCYRQAPAKERELLAAISSGGSTYYADSVKGRFTISRDNAKNTVSLQLNSLKPEDTAVYFCAAKKAKSYYVSRYPRYYYWGQGTQVTVSS
polyreactivity (PSR sort gate): low polyreactivity

QVQLVESGGGLVQAGGSLRLSCAATGRTFLYNAMGWYRQAPGKERELVAAISFDDGSTYYADSVKGRFTISRDNAKNTVYLQMNSLKPEDPAVYYCAAEYLYVGDSQAYNQYEYWGQGTQVTVSS
polyreactivity (PSR sort gate): low polyreactivity

QVQLVESGGGLVQAGGSLRLSCAASGNIFVDNAMGWYRQAPGKERELVAAITFSGDDTYYADSVKGRFTISRDNAKNTVYLQMNSLKPEDTAVYYCNAVPTLYWWYDYWGQGTQVTVSS
polyreactivity (PSR sort gate): low polyreactivity

QVQLVESGGGLVQAGGSLRLSCAASGIIYYLYAMGWYRHAPGKERELVATISRRGGSTYYADSVKGRFTISRDNAKNTVYLQMNSLKPEDTAVYYCATGHYSVGRSFSSGSYEYWGQGTQVTVSS
polyreactivity (PSR sort gate): high polyreactivity

QVQLVESGGGLVQAGGSLRLSCAASGRIFGGNTMGWYRQAPGKEREFVAAITQSGTRTYYADSVKGRFTISRDNAKNTVYLQMNSLKPEDTAVYYCAAEGYWYPYDYWGQGTQVTVSS
polyreactivity (PSR sort gate): high polyreactivity

QVQHVESGGGLVQAGGSLRLSCAASGSTFRYYTMGWYRQAPGKERELVADITIGGSTYYADSVKGRFTISRDNAKNTVYLQMNSLKPEDTAVYYCAARSTGGRIFATGVAYDYWGQGTQVTVST
polyreactivity (PSR sort gate): low polyreactivity

QVQLVESGGGLVQAGGSLRLSCAASGLTFGPNALGWYRQAPGQERELVAAITTGGGTNYADSVKGRFTISRDNAKNTVYLQMNSLKPEDTAVYYCAADALDSPDGYDYCGQGTQVTVSS
polyreactivity (PSR sort gate): low polyreactivity

QVQLVESGGGLVQAGGSLRLSCAASGFTFNYNAMGWYRQAPRKERELVAAISRSGGRTYYADSVKGRFTISRDKAKNTVYLQMNSLKPADTAVYYCAADSRTNGYDYWGQGTQVTVSS
polyreactivity (PSR sort gate): high polyreactivity

QVQLVESGGGLVQAGGRLRLSCAASGFTFVKNAMGWYRQAPGKERELVAAISSRGGSTYYADSVKGRFTISRDNAKNTVYLQMNSLKAEDTAVYYCATERERTMGYWGQGTQVTDSS
polyreactivity (PSR sort gate): high polyreactivity

QVQLVESGGGLVQAGGSLRLSCAASGSIYYYAMGWYRQAPGKERELVAVITSRGGSTNYADSVKGRFTISRDNAKNTVYLQMNSLKPQDTAVYYCNADYYRYYSITYGGDYWGQGTQVTVSS
polyreactivity (PSR sort gate): high polyreactivity

QVQLVESGGGLVQAGGSLRLSCAASGSIFFIYAIGWYRQAPGKQRELVATISSGGSTYYADSVKGRFRISRDIAKNTVYLQMNSLKPEDTAVYYCAADGIVQDGLEWEYDYWGQGTQVTVSS
polyreactivity (PSR sort gate): low polyreactivity

QVQLVESGGGLVQAGGSLRLSCAASGNNFRRYAMGWSRQAPGKERELVAAITWRGGNTYYADSVKGRFTISRDIAKNTVYLQRNSLKPEDTAVYYCNRVYRQRLGRDYWGQGTQVTVSS
polyreactivity (PSR sort gate): high polyreactivity

QVQLVESGGGLVQAGGSLRLSCAASGFIYYRYAMGWYRQAPGKERELVAAISRSGGSTYYADSVKGRFTISRDNAKNTVYLQMNSLNPEDTAVYYCAARDPGGAVGAAFDSWGQCTQVTVSS
polyreactivity (PSR sort gate): low polyreactivity

QVQLVESGGGLVQAGGSLRLSCAASGRTFCGNVMGWYRQAPGKERELVAAITNGASTNYADSVKGRFTISRDNAKNTVYLQMNSLKPEDTAVYYCAASANNWRRRGRSYEYWGQGTQVTVSS
polyreactivity (PSR sort gate): low polyreactivity

QVQLVESGGGLVQAGGSLRLSCAASGRTFYTYAMGLYRQAPGNERELVATITSGGSTYYADSVKGRFTISRDNAKNTVYLQMNSLKPEDTAVYYCARRRRESRQDGDYWVQGTQVTVSS
polyreactivity (PSR sort gate): high polyreactivity

QVQLVESGGGLVQAAGSLRLSCAASGRTFVFYAMGWYRQAPGKERELVAAISDGDRTNYADSVKGRFTISRDNAKNTVYLQMNSLKPEDTAVYYCAADREFWWAVVYTYEYYYWGQGTQVTVSS
polyreactivity (PSR sort gate): low polyreactivity
